Measured values reported in the nanobody polyreactivity screen of Harvey et al. (2022).

Test: yeast display, Sf9 membrane polyspecificity reagent, FACS + sequencing; frameworks hold sequencing errors
Outline: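 In a synthetic yeast display library (Saccharomyces cerevisiae BJ5465), nanobody expression was induced with galactose for 36–48 hours. FACS gates were set low and high (top ~1%) using anti-HA fluorescence for expression and streptavidin fluorescence for binding of the Sf9 membrane reagent. Each polyreactivity label is drawn from the gate of origin.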

| Sequence | polyreactivity (PSR sort gate) |
| --- | --- |
| QVQLVESGGGLVQAGGSLRLSCAASGRSFVGNAMGWYRQAPGKERELVASITRGGRTNYADSVNGRFTISRDNAKNTVYLQMNSLKPEDTAVYYCNAPGVTRAYLVGYDYWGQGTQVTVSS | low polyreactivity |
| QVQLVESGGGLVQAGGSLRLSCAASGRSIVGYTMGWYTQAPGKERELVAAITSGGSTYYADSVKGRFTISRDNAKNTVYLQMISLKPEDTAVYYCSAYVRYSTPGKLYQYGYWGQGTQVTVSS | high polyreactivity |
| QVQLVESGGGLVQAGGSLRLSCAASGRSLRGYAMGWYRQAPGKERELVAAISRRGGSTRYADSVKGRFTISRDNAKNTVYLQMNSLKPEDTAVYYCAAPDFPKYYPTAYLQADEYWGQGTQVTVSS | high polyreactivity |
| QVQLVESGGGLVQAGGSLRLSCAASGRTCPYYVMGWFRQAPGKERELVAAIRRTGGSTYYADSVKGRFTISRDNAKNTVYLQMNSLKPEDTAVYYFTKSHSILYEGGYDYWGQGTQVTVSS | low polyreactivity |
| QVQLVESGGGLVQAGGSLRLSCAASGRTCRHNAMGWYRQAPGTERELVAAISSSGTNTHYADSVKGRFTISRDNAKNTVYLQMNSLKPEDTAVYYCAADRWGARRKQYHENGYWAQGTQVTVSS | high polyreactivity |
| QVQLVESGGGLVQAGGSLRLSCAASGRTFAANTMGWYRQAPGKERELVAAINAGGSTYYADSVKGRFTISRDTAKNTVYLQMNSLKPEDTAVYYCAAKGSGYYGRQRIYSYTYDYWGQGTQVTVSS | high polyreactivity |
| QVQLVESGGGLVQAGGSLRLSCAASGRTFAAYAMGWYRQAPGKERELGAAISSSSGNTYYADSVKGRFTISRDNAKNTVYLQMYSLKPEDTAVYYCNAQRRFNANYWYDYWGQGTQVTVAS | high polyreactivity |
| QVQLVESGGGLVQAGGSLRLSCAASGRTFAAYAMGWYRQAPGKERELVATIRRGGTTDYADSVKGRFTISRDNAKNTVYLQMNSLKPEDTAVYYCNARSRTYRTRRYDYWGQGTQVTVSS | high polyreactivity |
| QVQLVESGGGLVQAGGSLRLSCAASGRTFAHYTMGWYRQEPGKERELVAGITRGGSTYYADSVKGRFTISRDNAKNNVYLQMNSVKPEDTAVYYCNAVTNYFYRRMEYWGQGTQVTVSS | high polyreactivity |
| QVQLVESGGGLVQAGGSLRLSCAASGRTFAINAMGWYRQATAKERELVADITTDGYTYYADSVKGRFTISRDNAKNTVYLQMNSLKPEDTAVYYCATDSLDYFIRFKQFGYWGQGTQVTVSS | low polyreactivity |
| QVQLVESGGGLVQAGGSLRLSCAASGRTFAINTMGWYRQAPGKEREFVASITRRGGSTYYADSVKVRFTISLDNAKNTVYFQMNSLKPEDTAVYYCNAELRWRLRARAAYYYWGQGSQVTVSS | high polyreactivity |
| QVQLVESGGGLVQAGGSLRLSCAASGRTFAIYAMGWYRQAPGKERELVASISSSGDRTYYADSVKGRFTISRDNAKNTVYLQMNSLKPEDTAVYYCAARWRYTYYYWGQGTQVTVSS | high polyreactivity |
| QVQLVESGGGLVQAGGSLRLSCAASGRTFAIYTMVWSRQAPGKERELVATISGSAGNTYYADSVKGRFTISRDNAKNTVYLQMNSLKPEDTAVYNCAARQRKARQIVLLDYWGQGTQVTVSS | high polyreactivity |
| QVQLVESGGGLVQAGGSLRLSCAASGRTFALYAMGWYRQAPGKERELVAAISSGGSTYYADSVKGRFTISRDNAKNTVYLQMNSLKPEDTAVYYCNARPKWGNRQSVRGYYILSPGGRMNYWGQGTQVTVSS | high polyreactivity |
| QVQLVESGGGLVQAGGSLRLSCAASGRTFANNAMGWYRQAPGKERELVAAISSSDDSTYYADSVKGRFTISRDNAKNTVYLQMNILKPEDTAVYYCAAPYPGHQSRFGYESWGQGTQVTVSS | low polyreactivity |
| QVQLVESGGGLVQAGGSLRLSCAASGRTFANYAMGWSRQAPGKERELVAAISSGGNTYYADSVKGRFTISRDNAKNTVYLQMNSLKPEDTSVYYCNADYLIKYDYWGKGTQVTVSS | high polyreactivity |
| QVQLVESGGGLVQAGGSLRLSCAASGRTFANYAMGWYRQAPGKERELVATITWSDGSTYADSVKGRFTISRDNAKNTVYLQMNSLKPEDTAVYYCATRRYGKVFYPSQYTRYDYWGQGTQVTVSS | high polyreactivity |
| QVQLVESGGGLVQAGGSLRLSCAASGRTFAPNAMGWYRQAPGKEREMVAAISWSGTSTYYADSVKGRFTISRDNAKNTVYLQMNSLKPEDTAVYYCAADLEGSVGSPLTYDYWGQGTQVTVSS | low polyreactivity |
| QVQLVESGGGLVQAGGSLRLSCAASGRTFAPNTMGWYRQAPGKERELVATITVSGGITYADSVKGRFTISRDNAKNTVYLQMNSLKPEDTAVYYCAARTPGWYLPRDYWGQGTQVTVSS | low polyreactivity |
| QVQLVESGGGLVQAGGSLRLSCAASGRTFAQYGMGWYRQAPGKERELVAAISRSGGRTYYADSVKGRFTISRDNAKNTVYLQMNSLKPEDTAVYYCAARAYLISSSTPFWTGYDSWGHGTQVTVSS | low polyreactivity |
| QVQLVESGGGLVQAGGSLRLSCAASGRTFARYAKGWYRQAPGKERELVAVISRTGSTYYADSVKGRFTISRDNAKNTVYLQMNSLKPEDTAVYYCATVYYYLAYGWSYSDMDYWGQGTQVTVSS | high polyreactivity |
| QVQLVESGGGLVQAGGSLRLSCAASGRTFARYAMGWYRQAPGKERELVAAISWSGGRTYYADSVKGRFTISRDNAKNTVYLQMNSLKPEDTAVYYCAASLYRRQMDHWGQGTQVTVSS | high polyreactivity |
| QVQLVESGGGLVQAGGSLRLSCAASGRTFARYDKGWYRQAPGKERELVAGINGDGGSTNYADSVKGRFTISRDNAKNTVYLQMNSLKPEDTAVFYCNVDQEDRKLHVSIKQLSDHWGQGTQVTVSS | low polyreactivity |
| QVQLVESGGGLVQAGGSLRLSCAASGRTFASNAMGWSRQAPGKERELVAAISVTGGRTYYADSVKGRFTISRDNAKNTVYLLMNSLKPEDTAVYYCAKVTKLDPYSYDYWGQGTQVTVSS | low polyreactivity |
| QVQLVESGGGLVQAGGSLRLSCAASGRTFASNAMGWYTQAPGKERELVAAITISGGRTYYADSVKGRFTISRDNAKNTVYLQMNSLIPEDTAVYYCAAAKHSWRPSYYWGGYWGQGTQVTVSS | low polyreactivity |
| QVQLVESGGGLVQAGGSLRLSCAASGRTFASYAMGWYRQAPGKERELVAVISRGGSNTNYADSVTGRFTISRDNAKNTVYLQMNSLKPEDTAVYYCADLAFKRYNPGGYDYWGQGTQVTVSS | high polyreactivity |
| QVQLVESGGGLVQAGGSLRLSCAASGRTFATYAMGWYRQAPGKERELVAAITSGGSTNYADSVKGRFTISRDNAKNTVYLQMNSLKPEDTAVYYCNAYKTNRGSGPWYTGRYDYWGQGTQVTVSS | low polyreactivity |
| QVQLVESGGGLVQAGGSLRLSCAASGRTFAVNVMGWYIPAPGKERELVAAIDFDDGITYYADSVKGRFTISRDNAKNTVYLQMNSLKPEDTAVYYCAAEFVYFGSDYYYWGQGTQVTVSS | high polyreactivity |
| QVQLVESGGGLVQAGGSLRLSCAASGRTFAWYAMGWYRQAPGKERELVAAITTRGSGTYYADSVKGRFTISRDNAKNTVYIQMNSLKPEDTAVYYCAKDPITVTTVDERVYYWGQGTQVTVSS | low polyreactivity |
